Earlier results on two molecules are cited in PMC11816975, “Bioactive Peptides from Milk Proteins with Antioxidant, Anti-Inflammatory, and Antihypertensive Activities” (Foods, 2025).

One series relates to NO production. On the set-up: method as in PMID 23768340. The conditions noted are these: at 100 µg/mL.
Details of series [1]: method as in PMID 23768340. The conditions noted are these: at 100 µg/mL.

B1: cLF: isolated camel lactoferrin (protein, UniProt Q9TUM0 20-708, looked up)
Lactotransferrin: ASKKSVRWCTTSPAESSKCAQWQRRMKKVRGPSVTCVKKTSRFECIQAISTEKADAVTLDGGLVYDAGLDPYKLRPIAAEVYGTENNPQTHYYAVAIAKKGTNFQLNQLQGLKSCHTGLGRSAGWNIPMGLLRPFLDWTGPPEPLQKAVAKFFSASCVPCVDGKEYPNLCQLCAGTGENKCACSSQEPYFGYSGAFKCLQDGAGDVAFVKDSTVFESLPAKADRDQYELLCPNNTRKPVDAFQECHLARVPSHAVVARSVNGKEDLIWKLLVKAQEKFGRGKPSGFQLFGSPAGQKDLLFKDSALGLLRISSKIDSGLYLGSNYITAIRGLRETAAEVELRRAQVVWCAVGSDEQLKCQEWSRQSNQSVVCATASTTEDCIALVLKGEADALSLDGGYIYIAGKCGLVPVLAESQQSPESSGLDCVHRPVKGYLAVAVVRKANDKITWNSLRGKKSCHTAVDRTAGWNIPMGLLSKNTDSCRFDEFLSQSCAPGSDPRSKLCALCAGNEEGQNKCVPNSSERYYGYTGAFRCLAENVGDVAFVKDVTVLDNTDGKNTEQWAKDLKLGDFELLCLNGTRKPVTEAESCHLAVAPNHAVVSRIDKVAHLEQVLLRQQAHFGRNGRDCPGKFCLFQSKTKNLLFNDNTECLAKLQGKTTYEEYLGPQYVTAIAKLRRCSTSPLLEACAFLMR
Turning to B1, the “inhibition of NO production” value in the series on NO production was “about 5%”. Besides, the “DPPH• inhibition” value (at 100 µg/mL, ref Habib et al. 55) is on record as 2.77%. Moreover, the ferric reducing power in series [1] is recorded as 0.317 mM Fe^2+.

B2: bLF: bovine lactoferrin, orthologue compared with eLF (protein, UniProt P24627 20-708, looked up)
Lactotransferrin: APRKNVRWCTISQPEWFKCRRWQWRMKKLGAPSITCVRRAFALECIRAIAEKKADAVTLDGGMVFEAGRDPYKLRPVAAEIYGTKESPQTHYYAVAVVKKGSNFQLDQLQGRKSCHTGLGRSAGWIIPMGILRPYLSWTESLEPLQGAVAKFFSASCVPCIDRQAYPNLCQLCKGEGENQCACSSREPYFGYSGAFKCLQDGAGDVAFVKETTVFENLPEKADRDQYELLCLNNSRAPVDAFKECHLAQVPSHAVVARSVDGKEDLIWKLLSKAQEKFGKNKSRSFQLFGSPPGQRDLLFKDSALGFLRIPSKVDSALYLGSRYLTTLKNLRETAEEVKARYTRVVWCAVGPEEQKKCQQWSQQSGQNVTCATASTTDDCIVLVLKGEADALNLDGGYIYTAGKCGLVPVLAENRKSSKHSSLDCVLRPTEGYLAVAVVKKANEGLTWNSLKDKKSCHTAVDRTAGWNIPMGLIVNQTGSCAFDEFFSQSCAPGADPKSRLCALCAGDDQGLDKCVPNSKEKYYGYTGAFRCLAEDVGDVAFVKNDTVWENTNGESTADWAKNLNREDFRLLCLDGTRKPVTEAQSCHLAVAPNHAVVSRSDRAAHVKQVLLHQQALFGKNGKNCPDKFCLFKSETKNLLFNDNTECLAKLGGRPTYEEYLGTEYVTAIANLKKCSTSPLLEACAFLTR
Turning to B2, the “DPPH• radical scavenging capacity” value (at 500 µg/mL) is “approximately 33%”.
